From PMC3748711, “APP interacts with LRP4 and agrin to coordinate the development of the neuromuscular junction in mice” (eLife, 2013)

B1: APP-Fc (APP695 extracellular domain, residues 1-596, fused to the constant region of human IgG) (Fc fusion, UniProt P12023-2 18-596, looked up)
chain: LEVPTDGNAGLLAEPQIAMFCGKLNMHMNVQNGKWESDPSGTKTCIGTKEGILQYCQEVYPELQITNVVEANQPVTIQNWCKRGRKQCKTHTHIVIPYRCLVGEFVSDALLVPDKCKFLHQERMDVCETHLHWHTVAKETCSEKSTNLHDYGMLLPCGIDKFRGVEFVCCPLAEESDSVDSADAEEDDSDVWWGGADTDYADGGEDKVVEVAEEEEVADVEEEEADDDEDVEDGDEVEEEAEEPYEEATERTTSTATTTTTTTESVEEVVRVPTTAASTPDAVDKYLETPGDENEHAHFQKAKERLEAKHRERMSQVMREWEEAERQAKNLPKADKKAVIQHFQEKVESLEQEAANERQQLVETHMARVEAMLNDRRRLALENYITALQAVPPRPHHVFNMLKKYVRAEQKDRQHTLKHFEHVRMVDPKKAAQIRSQVMTHLRVIYERMNQSLSLLYNVPAVAEEIQDEVDELLQKEQNYSDDVLANMISEPRISYGNDALMPSLTETKTTVELLPVNGEFSLDDLQPWHPFGVDSVPANTENEVEPVDARPAADRGLTTRPGSGLTNIKTEEISEVKM
B2: MBP-LRP4LBD (LRP4 ligand binding domain, aa 27-349, fused to maltose-binding protein) (domain or fragment, mouse, UniProt Q8VI56 27-349, looked up)
chain: CGRSHFTCAVSALGECTCIPAQWQCDGDNDCGDHSDEDGCTLPTCSPLDFHCDNGKCIRRSWVCDGDNDCEDDSDEQDCPPRECEEDEFPCQNGYCIRSLWHCDGDNDCGDNSDEQCDMRKCSDKEFRCSDGSCIAEHWYCDGDTDCKDGSDEESCPSAVPSPPCNLEEFQCAYGRCILDIYHCDGDDDCGDWSDESDCSSHQPCRSGEFMCDSGLCINSGWRCDGDADCDDQSDERNCTTSMCTAEQFRCRSGRCVRLSWRCDGEDDCADNSDEENCENTGSPQCASDQFLCWNGRCIGQRKLCNGINDCGDSSDESPQQNC
notes: Species is stated as mouse for the LRP4-Fc construct, not expressly for this one; Vector pMAL-p4x; also called LRP4-MBP; source: E. coli BL21, periplasmic extract, purified on amylose column; not shown: MBP, N-terminal, kept

What was measured:
[1] = target: LRP4 (endogenous, mouse embryonic muscle) (mouse (endogenous in embryonic muscle), UniProt Q8VI56 21-1905); assay: cell-based or functional assay
[2] = target: B1; assay: pull-down; 100 ng purified APP-Fc on Protein A-agarose beads, incubated with 100 ng purified MBP-LRP4LBD and 0-1000 ng neuronal agrin in PBS with 0.1% BSA, 4 hr, 4°C; immunoblot with anti-MBP, anti-agrin, anti-Fc; settings: both partners purified

LRP4 (endogenous, mouse embryonic muscle), sequence (Q8VI56 21-1905): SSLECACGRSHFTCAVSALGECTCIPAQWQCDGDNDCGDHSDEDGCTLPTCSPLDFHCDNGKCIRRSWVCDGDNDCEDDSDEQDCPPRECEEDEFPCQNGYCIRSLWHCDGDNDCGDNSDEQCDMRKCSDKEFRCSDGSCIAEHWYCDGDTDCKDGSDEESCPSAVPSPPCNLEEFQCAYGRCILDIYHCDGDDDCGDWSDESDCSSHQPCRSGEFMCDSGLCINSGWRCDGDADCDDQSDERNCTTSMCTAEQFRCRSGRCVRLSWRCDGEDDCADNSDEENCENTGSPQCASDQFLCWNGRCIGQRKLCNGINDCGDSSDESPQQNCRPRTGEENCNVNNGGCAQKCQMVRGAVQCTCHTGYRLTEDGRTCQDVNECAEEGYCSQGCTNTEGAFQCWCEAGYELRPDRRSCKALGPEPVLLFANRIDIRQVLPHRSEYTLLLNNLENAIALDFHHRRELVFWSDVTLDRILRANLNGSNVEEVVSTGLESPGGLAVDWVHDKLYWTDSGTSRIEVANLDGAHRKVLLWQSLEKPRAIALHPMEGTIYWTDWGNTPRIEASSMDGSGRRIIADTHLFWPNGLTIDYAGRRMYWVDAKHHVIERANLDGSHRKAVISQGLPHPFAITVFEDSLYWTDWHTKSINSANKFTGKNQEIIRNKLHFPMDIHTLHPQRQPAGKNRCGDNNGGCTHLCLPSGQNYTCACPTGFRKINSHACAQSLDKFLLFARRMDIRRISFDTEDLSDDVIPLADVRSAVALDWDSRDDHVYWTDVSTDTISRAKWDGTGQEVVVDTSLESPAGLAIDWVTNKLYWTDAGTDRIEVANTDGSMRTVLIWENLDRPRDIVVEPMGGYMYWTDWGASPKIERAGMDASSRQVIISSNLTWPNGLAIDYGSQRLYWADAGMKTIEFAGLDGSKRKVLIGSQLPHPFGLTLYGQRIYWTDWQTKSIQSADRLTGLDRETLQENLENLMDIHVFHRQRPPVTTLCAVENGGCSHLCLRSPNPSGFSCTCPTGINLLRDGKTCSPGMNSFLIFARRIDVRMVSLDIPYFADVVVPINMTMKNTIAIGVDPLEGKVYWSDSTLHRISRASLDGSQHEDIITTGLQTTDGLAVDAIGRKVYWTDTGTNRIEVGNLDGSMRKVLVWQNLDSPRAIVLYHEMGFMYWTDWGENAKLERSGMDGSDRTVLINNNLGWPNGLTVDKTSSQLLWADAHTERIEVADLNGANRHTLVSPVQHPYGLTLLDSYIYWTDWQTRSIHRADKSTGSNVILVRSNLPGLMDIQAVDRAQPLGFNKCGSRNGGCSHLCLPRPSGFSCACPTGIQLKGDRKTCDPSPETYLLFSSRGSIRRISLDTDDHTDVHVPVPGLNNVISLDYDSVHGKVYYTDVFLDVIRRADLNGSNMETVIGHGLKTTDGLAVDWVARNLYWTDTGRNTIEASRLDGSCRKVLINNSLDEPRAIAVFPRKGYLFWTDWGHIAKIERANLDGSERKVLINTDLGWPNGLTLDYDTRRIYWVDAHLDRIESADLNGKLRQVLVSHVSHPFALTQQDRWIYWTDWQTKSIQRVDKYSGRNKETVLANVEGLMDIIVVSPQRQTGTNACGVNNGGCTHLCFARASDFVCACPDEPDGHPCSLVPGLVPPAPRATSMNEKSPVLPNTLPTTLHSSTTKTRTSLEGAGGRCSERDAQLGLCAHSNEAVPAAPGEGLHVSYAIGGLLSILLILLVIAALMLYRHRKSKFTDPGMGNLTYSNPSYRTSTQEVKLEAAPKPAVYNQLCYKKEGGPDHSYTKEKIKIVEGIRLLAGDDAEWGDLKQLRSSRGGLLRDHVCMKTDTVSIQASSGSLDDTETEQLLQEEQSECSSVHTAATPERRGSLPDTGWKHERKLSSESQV

Row | MuSK tyrosine phosphorylation in myotubes, APP-Fc alone at 1×, 10× or 100× molar concentrations compared to 0.1 nM agrin (0.1-10 nM), 30 min at 37°C, without agrin [1] | fold binding against no agrin, with 10 ng/ml agrin [2] | fold binding against no agrin, with 30 ng/ml agrin [2] | Binder
1 | 4.3 fold over baseline | – | – | B1
2 | – | 1.3 fold | 3 fold | B2
